The values that follow come from PMC11470957, “Principles of paralog-specific targeted protein degradation engaging the C-degron E3 KLHDC2” (Nature Communications, 2024).

The target in the test is KLHDC2 substrate binding domain (KLHDC2^SBD, 15-361) (UniProt Q9Y2U9).
KLHDC2 substrate binding domain (KLHDC2^SBD, 15-361), sequence (Q9Y2U9 15-361): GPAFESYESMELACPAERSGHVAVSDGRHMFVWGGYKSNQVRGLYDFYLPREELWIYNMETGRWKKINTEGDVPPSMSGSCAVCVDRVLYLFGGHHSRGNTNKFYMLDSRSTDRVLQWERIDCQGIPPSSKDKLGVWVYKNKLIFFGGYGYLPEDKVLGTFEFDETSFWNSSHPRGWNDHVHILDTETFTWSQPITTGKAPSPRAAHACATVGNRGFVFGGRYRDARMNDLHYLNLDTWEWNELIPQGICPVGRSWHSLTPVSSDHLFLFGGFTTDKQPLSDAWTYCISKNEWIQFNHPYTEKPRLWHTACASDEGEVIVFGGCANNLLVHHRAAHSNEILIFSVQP

As to “BRD3^BD2 (second bromodomain of BRD3, residues 306-416) (from UniProt Q15059 306-416) (domain or fragment)”, the improvement of the IC50 of inhibition of KLHDC2 di-Gly substrate ubiquitylation, SJ46421-BRD3^BD2 against SJ46421 alone (orders-of-magnitude) stood at 2.
